Target: soluble CLEC2D antigen, ecto-domain (Q72-V191, H176C) with C-term Histidine tag (human) (UniProt Q9UHP7)
Test: flow cytometry on CLEC2D-coated magnetic beads

Chain of UniProt Q9UHP7 (Q9UHP7 72-191 H176C limits assumed): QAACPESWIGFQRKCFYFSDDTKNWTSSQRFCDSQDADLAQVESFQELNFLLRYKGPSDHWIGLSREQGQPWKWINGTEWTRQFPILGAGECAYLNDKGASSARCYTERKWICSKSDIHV

Substance: commercial P4500/anti-CLEC2D antibody
- efficiency of conjugation (antigen-coated beads stained by the antibody): > 90%

From US20240010733A1
